The values that follow come from US20250207119A1.

Some targets named below: ADAM9 from R & D Systems (UniProt Q13443); MMP 12 (UniProt P39900); MMP 14 (UniProt P50281); MMP 2 (UniProt P08253); MMP 3 (UniProt P08254); MMP 9 (UniProt P14780).
Common to all, as to test: cell-based or functional assay
Test [1] has as its target ADAM17 from R & D Systems (UniProt P78536).
Test [2] concerns the target Human ADAM10 from R & D Systems (human) (UniProt O14672).
The target in test [3] is Meprin from R & D Systems.

Chain of Human ADAM10 from R & D Systems (human) (O14672 214-672 limits assumed): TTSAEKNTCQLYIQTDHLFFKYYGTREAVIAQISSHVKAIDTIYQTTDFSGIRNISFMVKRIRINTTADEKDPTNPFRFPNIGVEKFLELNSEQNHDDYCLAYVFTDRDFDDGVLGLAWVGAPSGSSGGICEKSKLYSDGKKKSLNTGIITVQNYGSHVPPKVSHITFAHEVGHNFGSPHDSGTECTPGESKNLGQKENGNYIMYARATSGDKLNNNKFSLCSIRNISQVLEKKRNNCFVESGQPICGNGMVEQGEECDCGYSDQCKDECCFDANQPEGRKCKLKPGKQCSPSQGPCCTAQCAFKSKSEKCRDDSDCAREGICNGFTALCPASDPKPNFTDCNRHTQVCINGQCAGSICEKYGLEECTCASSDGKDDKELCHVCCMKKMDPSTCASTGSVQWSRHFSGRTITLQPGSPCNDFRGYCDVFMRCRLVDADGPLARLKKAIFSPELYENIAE
Chain of ADAM9 from R & D Systems (Q13443 29-697 limits assumed): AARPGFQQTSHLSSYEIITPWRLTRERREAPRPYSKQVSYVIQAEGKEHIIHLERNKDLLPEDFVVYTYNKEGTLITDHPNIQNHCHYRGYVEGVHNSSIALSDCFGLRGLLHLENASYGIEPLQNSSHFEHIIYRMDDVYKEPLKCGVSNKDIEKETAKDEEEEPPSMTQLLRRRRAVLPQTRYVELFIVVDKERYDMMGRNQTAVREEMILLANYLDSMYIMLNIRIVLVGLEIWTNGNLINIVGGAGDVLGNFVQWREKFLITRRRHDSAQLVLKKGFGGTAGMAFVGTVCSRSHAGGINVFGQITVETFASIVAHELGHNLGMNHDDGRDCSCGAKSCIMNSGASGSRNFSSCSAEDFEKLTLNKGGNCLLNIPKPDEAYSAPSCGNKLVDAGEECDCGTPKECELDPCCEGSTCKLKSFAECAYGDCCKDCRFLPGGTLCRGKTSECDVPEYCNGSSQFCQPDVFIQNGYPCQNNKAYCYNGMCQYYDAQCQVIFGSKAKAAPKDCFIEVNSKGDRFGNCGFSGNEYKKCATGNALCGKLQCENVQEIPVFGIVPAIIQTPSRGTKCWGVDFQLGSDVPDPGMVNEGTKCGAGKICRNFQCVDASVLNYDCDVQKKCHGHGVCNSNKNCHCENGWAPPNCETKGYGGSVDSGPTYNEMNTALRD
Chain of MMP 2 (P08253 30-660 limits assumed): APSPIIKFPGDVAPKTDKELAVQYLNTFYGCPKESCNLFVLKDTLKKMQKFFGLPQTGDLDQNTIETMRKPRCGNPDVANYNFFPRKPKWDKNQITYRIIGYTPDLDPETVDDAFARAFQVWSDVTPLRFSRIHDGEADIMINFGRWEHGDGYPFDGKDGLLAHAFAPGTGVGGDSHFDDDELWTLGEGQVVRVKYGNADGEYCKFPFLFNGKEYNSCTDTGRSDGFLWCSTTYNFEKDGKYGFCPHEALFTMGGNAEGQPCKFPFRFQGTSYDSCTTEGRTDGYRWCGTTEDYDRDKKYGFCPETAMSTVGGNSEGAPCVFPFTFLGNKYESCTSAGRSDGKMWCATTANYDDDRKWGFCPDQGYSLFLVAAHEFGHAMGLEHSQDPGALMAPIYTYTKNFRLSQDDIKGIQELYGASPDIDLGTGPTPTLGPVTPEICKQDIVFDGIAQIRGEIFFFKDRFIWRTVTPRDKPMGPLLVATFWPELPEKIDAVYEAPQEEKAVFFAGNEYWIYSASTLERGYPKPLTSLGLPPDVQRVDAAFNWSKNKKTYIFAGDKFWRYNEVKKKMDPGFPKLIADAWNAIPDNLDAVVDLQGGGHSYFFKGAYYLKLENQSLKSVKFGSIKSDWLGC
Chain of ADAM17 from R & D Systems (P78536 215-671 limits assumed): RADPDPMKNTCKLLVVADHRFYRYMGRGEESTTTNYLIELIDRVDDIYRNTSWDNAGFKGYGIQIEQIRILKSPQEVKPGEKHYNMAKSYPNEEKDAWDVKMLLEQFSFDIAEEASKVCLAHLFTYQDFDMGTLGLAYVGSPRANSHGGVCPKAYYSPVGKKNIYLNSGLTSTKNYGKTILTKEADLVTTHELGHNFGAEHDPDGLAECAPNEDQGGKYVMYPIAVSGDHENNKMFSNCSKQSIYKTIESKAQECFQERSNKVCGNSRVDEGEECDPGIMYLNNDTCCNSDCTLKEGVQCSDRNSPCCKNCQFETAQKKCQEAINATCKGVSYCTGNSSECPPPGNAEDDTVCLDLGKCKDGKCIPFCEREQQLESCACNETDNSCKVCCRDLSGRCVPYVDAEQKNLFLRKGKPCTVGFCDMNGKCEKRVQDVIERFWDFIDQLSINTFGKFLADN
Chain of MMP 9 (P14780 20-707 limits assumed): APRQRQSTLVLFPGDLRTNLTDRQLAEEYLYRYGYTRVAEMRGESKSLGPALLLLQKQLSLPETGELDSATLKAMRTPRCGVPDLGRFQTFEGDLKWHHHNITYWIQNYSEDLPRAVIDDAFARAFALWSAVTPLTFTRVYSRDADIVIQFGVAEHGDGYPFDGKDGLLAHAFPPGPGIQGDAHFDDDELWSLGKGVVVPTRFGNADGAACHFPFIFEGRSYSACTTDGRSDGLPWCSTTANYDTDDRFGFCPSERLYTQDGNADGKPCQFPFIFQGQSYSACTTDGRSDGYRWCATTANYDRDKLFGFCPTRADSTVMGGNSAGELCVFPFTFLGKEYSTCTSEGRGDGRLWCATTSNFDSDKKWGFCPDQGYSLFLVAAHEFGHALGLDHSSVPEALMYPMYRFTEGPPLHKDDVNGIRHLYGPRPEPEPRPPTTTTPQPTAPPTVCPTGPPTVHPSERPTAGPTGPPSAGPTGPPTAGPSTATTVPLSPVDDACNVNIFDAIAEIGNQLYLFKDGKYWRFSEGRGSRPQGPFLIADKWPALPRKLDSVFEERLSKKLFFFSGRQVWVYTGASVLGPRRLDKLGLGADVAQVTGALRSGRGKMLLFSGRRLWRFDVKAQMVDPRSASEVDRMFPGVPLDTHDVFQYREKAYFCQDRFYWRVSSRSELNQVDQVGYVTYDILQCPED
Chain of MMP 12 (P39900 17-470 limits assumed): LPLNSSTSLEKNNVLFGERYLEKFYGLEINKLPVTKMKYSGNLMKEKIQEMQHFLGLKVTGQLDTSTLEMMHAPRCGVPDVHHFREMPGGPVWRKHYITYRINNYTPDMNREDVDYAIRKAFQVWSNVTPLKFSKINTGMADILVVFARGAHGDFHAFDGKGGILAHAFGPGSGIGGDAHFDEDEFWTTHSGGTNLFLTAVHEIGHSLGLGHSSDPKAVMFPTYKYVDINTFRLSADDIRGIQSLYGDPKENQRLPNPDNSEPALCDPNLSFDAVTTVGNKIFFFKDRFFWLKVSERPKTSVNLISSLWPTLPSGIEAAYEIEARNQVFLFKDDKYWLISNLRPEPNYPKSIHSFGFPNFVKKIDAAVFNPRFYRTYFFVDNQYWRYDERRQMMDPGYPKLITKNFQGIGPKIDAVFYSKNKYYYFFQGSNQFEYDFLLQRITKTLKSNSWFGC
Chain of MMP 3 (P08254 18-477 limits assumed): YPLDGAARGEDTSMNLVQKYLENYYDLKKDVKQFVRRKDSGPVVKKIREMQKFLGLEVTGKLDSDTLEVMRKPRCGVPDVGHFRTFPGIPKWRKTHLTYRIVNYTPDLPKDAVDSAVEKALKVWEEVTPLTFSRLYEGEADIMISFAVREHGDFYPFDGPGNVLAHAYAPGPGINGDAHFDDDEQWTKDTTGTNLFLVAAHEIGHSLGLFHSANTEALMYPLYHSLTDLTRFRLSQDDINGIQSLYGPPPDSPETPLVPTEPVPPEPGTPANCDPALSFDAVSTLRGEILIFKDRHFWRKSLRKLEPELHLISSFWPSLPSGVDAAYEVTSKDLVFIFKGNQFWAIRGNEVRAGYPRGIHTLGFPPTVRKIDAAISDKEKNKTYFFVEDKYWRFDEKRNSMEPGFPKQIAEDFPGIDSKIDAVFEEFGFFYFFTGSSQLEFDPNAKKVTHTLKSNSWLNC

“SEQ ID NO: 1 (human wild type ADAM10 prodomain peptide, amino acids 23-211 of NP_001101.1)” came in with a percent inhibition of ADAM17 activity in test [1] of 28 % at 8 µM. The percent inhibition of ADAM9 activity in the test with ADAM9 from R & D Systems amounted to 0 % at 8 µM. The IC50 (nM), inhibition of ADAM10 cleavage of the fluorescent substrate PEPDAB064 in test [2] came out at 17 nM. Also, the percent inhibition of MMP activity (PEPDAB008 substrate) with MMP 12, in the test with MMP 14, with MMP 2, in the test with MMP 3 and in the test with MMP 9 was 0 % at 8 µM in each case. In addition, in [3], the IC50 (nM), inhibition of meprin cleavage of the fluorescent substrate PEPDAB022 was 185 nM.
